Data on 5 substances can be found in patent US20190062427A1.

Experiment [1] deals with human Siglec-9 expressed on human cells (human) (UniProt Q9Y336). Description: cell-based or functional assay.
The target is the same in experiment [2]. Description: flow cytometry on human primary monocytes, isotype control, PE secondary.
For experiment [3] the target is unchanged. The experiment in a line: flow cytometry on human primary macrophages, isotype control, PE secondary.
For experiment [4] the target is unchanged. The experiment in a line: flow cytometry on human primary dendritic cells, isotype control, PE secondary.
Experiment [5] shares this target. The experiment in a line: flow cytometry on human primary monocytes, PE-conjugated secondary antibody only (no primary), background control.
Experiment [6] has the same target. Description: flow cytometry on human primary macrophages, PE-conjugated secondary antibody only (no primary), background control.
Experiment [7] has the same target. The experiment in a line: flow cytometry on human primary dendritic cells, PE-conjugated secondary antibody only (no primary), background control.
Experiment [8] deals with Siglec-9-Fc (R&D Systems, catalog number 1139-SL-050) (human) (UniProt Q9Y336). Description: blocking assay by flow cytometry on U937 cells (sialic acid ligands); same table: S9-Fc alone 156, secondary alone 37.6; panel headed 'Isotype does not block'.
Sequence of Siglec-9-Fc (R&D Systems, catalog number 1139-SL-050) (human) (Q9Y336 18-348 limits assumed): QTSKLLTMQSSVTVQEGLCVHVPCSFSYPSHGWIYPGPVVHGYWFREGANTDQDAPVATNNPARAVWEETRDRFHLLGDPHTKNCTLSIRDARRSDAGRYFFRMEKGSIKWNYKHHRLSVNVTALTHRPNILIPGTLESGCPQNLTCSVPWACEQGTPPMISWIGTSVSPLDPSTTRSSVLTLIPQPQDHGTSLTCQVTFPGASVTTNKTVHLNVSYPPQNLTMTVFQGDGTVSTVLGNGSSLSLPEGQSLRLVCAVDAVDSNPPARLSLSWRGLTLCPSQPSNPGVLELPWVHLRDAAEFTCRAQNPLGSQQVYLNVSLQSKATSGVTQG

Sequence of human Siglec-9 expressed on human cells (human) (Q9Y336 18-463): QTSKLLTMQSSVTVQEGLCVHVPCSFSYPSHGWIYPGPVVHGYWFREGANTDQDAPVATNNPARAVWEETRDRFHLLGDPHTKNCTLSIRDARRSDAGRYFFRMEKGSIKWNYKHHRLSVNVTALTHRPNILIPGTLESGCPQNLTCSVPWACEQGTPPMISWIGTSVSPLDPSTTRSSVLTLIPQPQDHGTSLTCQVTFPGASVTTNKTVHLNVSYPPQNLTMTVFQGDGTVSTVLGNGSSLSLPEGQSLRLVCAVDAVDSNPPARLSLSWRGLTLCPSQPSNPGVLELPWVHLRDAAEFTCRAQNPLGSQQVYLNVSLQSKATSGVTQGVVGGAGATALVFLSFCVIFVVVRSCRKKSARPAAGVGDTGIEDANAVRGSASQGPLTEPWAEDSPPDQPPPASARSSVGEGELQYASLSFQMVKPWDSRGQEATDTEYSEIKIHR

In experiment [1], mIgG2a isotype control antibody displayed a Percent Siglec-9 Surface Expression, DCs (% Siglec-9) of 98.6%; a Percent Siglec-9 Surface Expression, Macrophages (% Siglec-9) of 97.8%; a Percent Siglec-9 Surface Expression, Microglia (% Siglec-9) of 91.2%; a Percent Siglec-9 Surface Expression, Monocytes (% Siglec-9) of 101%. The substance further yielded a Percent Siglec-9 Surface Expression, THP-1 cells (% Siglec-9) in experiment [1] of 95.9%. In experiment [2], this substance yielded a % Positive of 3.5% and an MFI of 127. In experiment [3], this substance came in with a % Positive of 22.6% and an MFI of 164. Further, in experiment [4], the % Positive was 8.45% and the MFI is 121.

In experiment [1], mIgG2b isotype control antibody came in with a Percent Siglec-9 Surface Expression, DCs (% Siglec-9) of 93.4%; a Percent Siglec-9 Surface Expression, Macrophages (% Siglec-9) of 97.2%; a Percent Siglec-9 Surface Expression, Microglia (% Siglec-9) of 91.7%; a Percent Siglec-9 Surface Expression, Monocytes (% Siglec-9) of 98.9%. This substance also had a Percent Siglec-9 Surface Expression, THP-1 cells (% Siglec-9) in experiment [1] of 98%. Moreover, in experiment [2], the % Positive came out at 4% and the MFI is 145. Besides, in experiment [3], the % Positive turned out to be 12.6% and the MFI was 180. In experiment [4], this substance had a % Positive of 26.4% and an MFI of 319.

In the case of PE-conjugated secondary antibody, the results for the % Positive in experiment [5], in experiment [6] and in experiment [7] were 2.6%, 3.58% and 7.05%, respectively. For the same substance, the MFI is 105 in experiment [5], 153 in experiment [6] and 90.1 in experiment [7].

As for Isotype (antibody), in experiment [8], the Mean : PE-A (Siglec-9-Fc bound to U937 cells in the presence of the mAb) turned out to be 203.

In experiment [1], mIgG1 isotype control antibody showed a Percent Siglec-9 Surface Expression, DCs (% Siglec-9) of 96.5%; a Percent Siglec-9 Surface Expression, Macrophages (% Siglec-9) of 99.3%; a Percent Siglec-9 Surface Expression, Microglia (% Siglec-9) of 90.3%; a Percent Siglec-9 Surface Expression, Monocytes (% Siglec-9) of 100%. The substance also had a Percent Siglec-9 Surface Expression, THP-1 cells (% Siglec-9) in experiment [1] of 100%. Further, in experiment [2], the % Positive turned out to be 2.6% and the MFI is 104. In experiment [3], this substance displayed a % Positive of 3.01% and an MFI of 115. In experiment [4], this substance registered a % Positive of 12.3% and an MFI of 132.
